Assay results as given in paper PMC6363758, “Zinc regulates ERp44-dependent protein quality control in the early secretory pathway” (Nature Communications, 2019).

What was measured:
[1] = target: T1, Ero1α Cys104/Cys131Cys166Ala mutant (recombinant) (UniProt Q96HE7 24-468, Cys104/Cys131Cys166Ala | Cys104/Cys131Cys166Ala | Cys104/Cys131Cys166Ala); experiment: ITC; 420 µM Ero1α injected into 30 µM ERp44 WT, no Zn2+; 20 mM BisTris-HCl pH 6.2, 150 mM NaCl, 283 K; conditions: both partners purified
T1 construct: Ero1α with Cys104, Cys131 and Cys166 replaced by Ala; used in all the in vitro experiments
T1 sequence (looked up): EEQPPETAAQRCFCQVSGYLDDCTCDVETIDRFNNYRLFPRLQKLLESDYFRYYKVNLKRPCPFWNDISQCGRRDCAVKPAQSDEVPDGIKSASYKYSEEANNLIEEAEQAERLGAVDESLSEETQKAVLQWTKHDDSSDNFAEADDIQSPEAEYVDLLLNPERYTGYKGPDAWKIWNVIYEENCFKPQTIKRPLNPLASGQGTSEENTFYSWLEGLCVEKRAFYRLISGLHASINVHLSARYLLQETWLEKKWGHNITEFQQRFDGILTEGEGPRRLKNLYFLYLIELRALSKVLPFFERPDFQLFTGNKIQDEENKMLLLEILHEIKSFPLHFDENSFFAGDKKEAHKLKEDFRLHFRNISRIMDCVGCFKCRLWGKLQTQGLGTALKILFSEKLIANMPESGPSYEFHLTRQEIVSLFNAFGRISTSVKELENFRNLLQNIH

[2] = target: T1, Ero1α Cys104/Cys131Cys166Ala mutant …; experiment: ITC; 200 µM ERp44 injected into 15 µM Ero1α and 15 µM ZnCl2; 20 mM BisTris-HCl pH 6.2, 150 mM NaCl, 283 K; conditions: both partners purified

B1: ERp44 WT (recombinant) (natural protein)
chain: EITSLDTENIDEILNNADVALVNFYADWCRFSQMLHPIFEEASDVIKEEFPNENQVVFARVDCDQHSDIAQRYRISKYPTLKLFRNGMMMKREYRGQRSVKALADYIRQQKSDPIQEIRDLAEITTLDRSKRNIIGYFEQKDSDNYRVFERVANILHDDCAFLSAFGDVSKPERYSGDNIIYKPPGHSAPDMVYLGAMTNFDVTYNWIQDKCVPLVREITFENGEELTEEGLPFLILFHMKEDTESLEIFQNEVARQLISEKGTINFLHADCDKFRHPLLHIQKTPADCPVIAIDSFRHMYVFGDFKDVLIPGKLKQFVFDLHSGKLHREFHHGPDPTDTAPGEQAQDVASSPPESSFQKLAPSEYRYTLLRDRDEL
notes: ERp44, chaperone of the PDI family; Probably the mature protein without its signal peptide (surmise)
In the case of B1, the Kd [1] is reported as 1310 nM and the Kd [2] is reported as 220 nM.
